Assay results taken from US20230302054A1.

Target: CD19 antigen on NALM-6 tumor cells (pre-B cell leukemia) (human) (UniProt P15391)
Assay: cell-based or functional assay

CD19 antigen on NALM-6 tumor cells (pre-B cell leukemia) (human), sequence (P15391 20-556): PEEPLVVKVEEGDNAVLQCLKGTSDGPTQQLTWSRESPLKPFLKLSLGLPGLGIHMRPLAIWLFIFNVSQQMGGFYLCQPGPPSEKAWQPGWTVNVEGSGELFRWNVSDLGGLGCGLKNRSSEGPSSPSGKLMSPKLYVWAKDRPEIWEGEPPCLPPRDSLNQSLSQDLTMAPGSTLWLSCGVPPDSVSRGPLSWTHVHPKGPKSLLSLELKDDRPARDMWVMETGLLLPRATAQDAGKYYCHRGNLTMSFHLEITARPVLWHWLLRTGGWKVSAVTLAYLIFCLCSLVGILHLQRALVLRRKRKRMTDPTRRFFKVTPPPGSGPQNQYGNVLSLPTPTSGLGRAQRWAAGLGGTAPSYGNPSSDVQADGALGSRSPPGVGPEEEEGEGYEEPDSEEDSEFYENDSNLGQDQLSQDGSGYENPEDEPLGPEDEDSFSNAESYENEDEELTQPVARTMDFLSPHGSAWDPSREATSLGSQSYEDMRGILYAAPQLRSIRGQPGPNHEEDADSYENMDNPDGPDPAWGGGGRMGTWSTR

For “Anti-hCD19-CD3 bispecific T cell engager (BiTE) (InvivoGen, #bimab-hcd19cd3) (bispecific antibody)”, the BiTE-mediated NALM-6 tumor killing (luciferase-based readout, Bcl-xL-transfected CD8+ T cells as effectors) was greater than 95%.
